Where two headings read alike, the source gives them in different places.
Experiments:
[1] = biological target: T1, calcium-saturated calmodulin (CaM) (Homo sapiens, UniProt P0DP23); conditions: cited from earlier work; for −TΔSbind: Binding entropy at 308 K (Table 3), values cited per Table 2 footnotes; for −TΔSbinding^total: ITC, 308 K, from Marlow & Wand or Frederick et al.
T1 construct: made in house

[2] = biological target: T1, calcium-saturated calmodulin (CaM); test: Isothermal titration calorimetry of target domain peptides binding to calcium-saturated calmodulin; conditions: for −TΔSbind: Binding entropy at 308 K (Table 3); for −TΔSbinding^total: ITC, 308 K, pH 6.5, 100 mM KCl, 6 mM CaCl2, standard errors
Excerpt: NMR methods are herein used to determine the dynamic response of human CaM (GenBank AAD45181) to the binding of six peptides representing the calmodulin-binding domains of the smooth muscle myosin light chain kinase (smMLCK; AAA69964) (Lukas, T. J. et al. Calmodulin binding domains: characterization of a phosphorylation and calmodulin binding site from myosin light chain kinase. Biochemistry 25, 1458-1464 (1986)), the neuronal and endothelial nitric oxide synthases (nNOS and eNOS; AAB60654 and AAH63294, respectively) (Zhang, M. & Vogel, H. J. Characterization of the calmodulin-binding domain of rat cerebellar nitric oxide synthase. J. Biol. Chem. 269, 981-985 (1994)), the calmodulin kinase kinase (CaMKKα; EDM05132) (Tokumitsu, H. et al. Calcium/calmodulin-dependent protein kinase kinase: identification of regulatory domains. Biochemistry 36, 12823-12827 (1997)), the calmodulin kinase I (CaMKI; EAW63990) Goldberg, J., Nairn, A. C. & Kuriyan, J. Structural basis for the autoinhibition of calcium/calmodulin-dependent protein kinase I. Cell 84, 875-887 (1996)) and the phosphodiesterase (PDE; AAD40738 (SEQ ID NO: 8)) Goldberg, J., Nairn, A. C. & Kuriyan, J. Structural basis for the autoinhibition of calcium/calmodulin-dependent protein kinase I. Cell 84, 875-887 (1996)).
Four of the peptides have been found previously by isothermal titration calorimetry to have roughly the same affinity for calmodulin but with widely different thermodynamic parameters defining the free energy of association. Wintrode, P. L. & Privalov, P. L. Energetics of target peptide recognition by calmodulin: a calorimetric study. […] J. Biol. Chem. 276, 14083-14091 (2001). The present study repeats isothermal titration calorimetry measurements at a temperature (35° C.) that is more optimal for solution NMR spectroscopy, and characterizes the thermodynamics of binding of two additional domains (FIG. 1). Shown in FIG. 1 are the Gibbs free energy (ΔG), enthalpy (ΔH) and entropy (−TΔS) for the formation of the six calcium-saturated CaM-peptide complexes at 35° C., as determined by isothermal titration calorimetry.
Calmodulin and synthetic peptides and complexes were prepared as described previously (Kranz, J. K. et al. A direct test of the reductionist approach to structural studies of calmodulin activity: relevance of peptide models of target proteins. J. Biol. Chem. 277, 16351-16354 (2002)) in 20 mM imidazole (pH 6.5), 100 mM KCl, 6 mM CaCl2 and 0.02% (w/v) NaN3. NMR samples were slightly (˜10%) over-titrated with peptide to ensure full complex formation. […] Data were obtained with a VP-isothermal titration calorimeter (Microcal) and analysed with the Origin (v.5) software.

[3] = biological target: T1, calcium-saturated calmodulin (CaM); test: Deuterium NMR relaxation of methyl-bearing side chains of target domains bound to CaM; conditions: residue L20 of the bound target domain
Excerpt: Using deuterium NMR relaxation methods, fast motion of the methyl-bearing side-chains of the target domains in the six CaM complexes were examined. Muhandiram, D. R. et al., Measurement of H-2 T-1 and T-1p relaxation-times in uniformly C-13-Labeled and fractionally H-2-labeled proteins in solution. J. Am. Chem. Soc. 117, 11536-11544 (1995).
All bound target domain methyl resonances are well resolved in ^13C-single quantum heteronuclear correlation (^13C-HSQC) NMR spectra and deuterium relaxation parameters could be measured with high precision. The 76 methyl order parameters from 52 residues of the target domains in the six complexes are heterogeneously distributed with O^2axis values ranging from 0.13 to 0.95 (FIG. 5). […]
O^2axis parameters were determined from T1 and T1p deuterium relaxation (Muhandiram, D. R. et al. Measurement of H-2 T-1 and T-1p relaxation-times in uniformly C-13-Labeled and fractionally H-2-labeled proteins in solution. J. Am. Chem. Soc. 117, 11536-11544 (1995)) measured at two magnetic fields. Rotational correlation times and O^2NH were determined from ^15N relaxation (Farrow, N. A. et al. Backbone dynamics of a free and a phosphopeptide-complexed Src homology-2 domain studied by ^15N NMR relaxation. Biochemistry 33, 5984-6003 (1994)) obtained at two magnetic fields. O^2CαCO parameters were determined by transverse cross-correlated relaxation. […]

Substance	−TΔSbind [1]	−TΔSbinding^total [1]	−TΔSbind [2]	−TΔSbinding^total [2]	O^2axis [3]
(COOH-FPNGFSRKRLMSKVLIVTTWSPLL [CaMKKα(p)]	+90.0 ± 1.0 kJ/mol	+90.0 ± 1.0 kJ/mol	–	–	–
AKSKWKQAFNATAVVRHMRKLQ (listed as Homo sapiens) [CaMKI(p)]	+69.6 ± 0.9 kJ/mol	+69.6 ± 0.9 kJ/mol	–	–	–
QTEKMWQRLKGILRSLVKQ [PDE(p)]	–	–	+33.9 ± 0.7 kJ/mol	+33.9 ± 0.7 kJ/mol	0.165
RKKTFKEVANAVKISASLMG [eNOS(p)]	–	–	+25.7 ± 0.8 kJ/mol	+25.7 ± 0.8 kJ/mol	–

Source: US8652790B2, “Conformational entropy in molecular recognition” (The Trustees of the University of Pennsylvania, priority 2007, dated 2014)
